{
  "source": "paper PMC4041446",
  "about": "“Eukaryotic and archaeal TBP and TFB/TF(II)B follow different promoter DNA bending pathways”",
  "key": {"[1]": {"target": "SaTBP;SaTFB (TFB1) (Sulfolobus acidocaldarius;Sulfolobus acidocaldarius) (UniProt Q9UWN7)", "sequence (Q9UWN7 whole entry, looked up)": "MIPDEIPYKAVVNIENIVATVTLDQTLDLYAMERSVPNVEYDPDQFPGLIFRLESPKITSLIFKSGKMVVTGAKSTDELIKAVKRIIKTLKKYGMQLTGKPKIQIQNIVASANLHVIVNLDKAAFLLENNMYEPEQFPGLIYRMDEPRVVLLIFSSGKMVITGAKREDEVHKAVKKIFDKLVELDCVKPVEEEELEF", "test": "smFRET", "conditions": "smFRET: N70 buffer (Mj) or N65 buffer (Sa), compositions in Table 1 not in the material, Sa EMSA: 10 mM MOPS pH 6.5, 180 mM NaCl, 20 mM KOAc, 11 mM MgCl2, 10% …"}, "[2]": {"target": "T1, MjTBP;MjTFB (Methanocaldococcus jannaschii;Methanocaldococcus jannaschii) (UniProt Q57930+Q58192+Q58192)", "T1 sequence 1": "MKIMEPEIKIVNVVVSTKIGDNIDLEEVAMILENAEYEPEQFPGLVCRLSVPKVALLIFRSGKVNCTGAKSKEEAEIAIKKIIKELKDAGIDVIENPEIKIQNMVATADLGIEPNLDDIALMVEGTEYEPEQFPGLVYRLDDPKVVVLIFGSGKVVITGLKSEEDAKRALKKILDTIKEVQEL", "T1 sequence 2": "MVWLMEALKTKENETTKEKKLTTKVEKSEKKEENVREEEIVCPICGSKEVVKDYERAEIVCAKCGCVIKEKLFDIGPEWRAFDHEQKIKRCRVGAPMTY", "T1 sequence 3": "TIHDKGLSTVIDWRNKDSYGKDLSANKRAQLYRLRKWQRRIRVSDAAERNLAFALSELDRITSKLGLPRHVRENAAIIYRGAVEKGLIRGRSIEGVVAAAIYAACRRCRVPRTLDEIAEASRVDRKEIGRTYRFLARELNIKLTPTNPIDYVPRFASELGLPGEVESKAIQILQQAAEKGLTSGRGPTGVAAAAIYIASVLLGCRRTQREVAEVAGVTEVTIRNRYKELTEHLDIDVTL", "test": "smFRET", "conditions": "MjTBP + MjTFB; smFRET: N70 buffer (Mj) or N65 buffer (Sa), compositions in Table 1 not in the material; Sa EMSA: 10 mM MOPS pH 6.5, 180 mM NaCl, 20 mM KOAc, 11 mM MgCl2, 10% …"}, "[3]": {"target": "SaTBP;SaTFB (TFB1) (Sulfolobus acidocaldarius;Sulfolobus acidocaldarius) (UniProt Q9UWN7)", "test": "smFRET titration (confocal)", "conditions": "smFRET: N70 buffer (Mj) or N65 buffer (Sa), compositions in Table 1 not in the material, Sa EMSA: 10 mM MOPS pH 6.5, 180 mM NaCl, 20 mM KOAc, 11 mM MgCl2, 10% …"}, "[4]": {"target": "T2, ScTBP (Saccharomyces cerevisiae, UniProt P13393 1-240)", "T2 sequence": "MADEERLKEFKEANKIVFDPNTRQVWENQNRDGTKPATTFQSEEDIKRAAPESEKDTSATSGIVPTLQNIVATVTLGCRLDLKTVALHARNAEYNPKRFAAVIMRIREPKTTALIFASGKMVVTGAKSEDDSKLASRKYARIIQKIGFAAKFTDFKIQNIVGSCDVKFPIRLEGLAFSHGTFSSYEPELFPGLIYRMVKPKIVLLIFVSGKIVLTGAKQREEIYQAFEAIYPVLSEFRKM", "test": "smFRET titration (confocal); smFRET: N70 buffer (Mj) or N65 buffer (Sa), compositions in Table 1 not in the material; Sa EMSA: 10 mM MOPS pH 6.5, 180 mM NaCl, 20 mM KOAc, 11 mM MgCl2, 10% glycerol, 5 mM DTT, 1 ug BSA, 100 ug/ml heparin, 65 C 5 min", "conditions": "protein: recombinant; label: donor and ATTO647n acceptor"}, "[5]": {"target": "T3, ScTBP;ScTF(II)B (Saccharomyces cerevisiae;Saccharomyces …, UniProt P13393;P29055 1-240;1-345, |)", "T3 sequence 1": "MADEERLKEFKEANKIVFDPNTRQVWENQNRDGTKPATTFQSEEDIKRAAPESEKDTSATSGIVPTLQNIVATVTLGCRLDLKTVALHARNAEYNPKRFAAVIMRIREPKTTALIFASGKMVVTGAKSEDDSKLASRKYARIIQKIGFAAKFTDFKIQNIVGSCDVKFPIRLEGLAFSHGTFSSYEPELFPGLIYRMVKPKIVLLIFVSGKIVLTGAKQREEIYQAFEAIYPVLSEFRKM", "T3 sequence 2": "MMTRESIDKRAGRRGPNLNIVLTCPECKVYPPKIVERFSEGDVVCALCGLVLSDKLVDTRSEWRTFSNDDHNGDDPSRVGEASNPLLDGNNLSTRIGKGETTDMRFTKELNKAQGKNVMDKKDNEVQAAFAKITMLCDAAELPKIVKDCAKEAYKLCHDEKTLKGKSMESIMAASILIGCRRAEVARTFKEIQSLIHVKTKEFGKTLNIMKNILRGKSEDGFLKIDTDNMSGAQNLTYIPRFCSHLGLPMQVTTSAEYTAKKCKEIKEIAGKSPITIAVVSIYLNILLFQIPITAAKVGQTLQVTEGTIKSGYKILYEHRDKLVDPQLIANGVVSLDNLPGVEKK", "test": "smFRET; TF(II)B stabilizes fully bent state; smFRET: N70 buffer (Mj) or N65 buffer (Sa), compositions in Table 1 not in the material; Sa EMSA: 10 mM MOPS pH 6.5, 180 mM NaCl, 20 mM KOAc, 11 mM MgCl2, 10% glycerol, 5 mM DTT, 1 ug BSA, 100 ug/ml heparin, 65 C 5 min", "conditions": "protein: recombinant;recombinant; tags: ;; copies: 1;1; label: donor and ATTO647n acceptor"}, "[6]": {"target": "T4, MjTBP (Methanocaldococcus jannaschii, UniProt Q57930 1-183)", "T4 sequence": "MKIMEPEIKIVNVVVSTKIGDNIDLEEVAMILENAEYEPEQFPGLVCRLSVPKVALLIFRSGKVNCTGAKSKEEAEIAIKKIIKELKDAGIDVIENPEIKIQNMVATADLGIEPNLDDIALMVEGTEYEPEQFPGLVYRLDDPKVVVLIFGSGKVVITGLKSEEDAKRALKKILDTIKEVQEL", "test": "smFRET titration (confocal); smFRET: N70 buffer (Mj) or N65 buffer (Sa), compositions in Table 1 not in the material; Sa EMSA: 10 mM MOPS pH 6.5, 180 mM NaCl, 20 mM KOAc, 11 mM MgCl2, 10% glycerol, 5 mM DTT, 1 ug BSA, 100 ug/ml heparin, 65 C 5 min", "conditions": "protein: recombinant; label: Cy3B or ATTO532 donor, ATTO647n acceptor"}},
  "data": [
    {"molecule": "DNASSV-BRE", "values": [
      {"measurement": "binding signal (% high FRET population)", "setting": "[1]; SaTBP + SaTFB, main text says no second population", "result": 29},
      {"measurement": "binding signal (% high FRET population)", "setting": "[2]", "result": 62}
    ]},
    {"molecule": "CGGACCGAAAGCGCGACCATCGCCGGAGATTGGAGTAAAGTTTAAATACTG (double strand) [DNASSV (SSV T6 promoter)]", "values": [
      {"measurement": "binding signal (% high FRET population)", "setting": "[1]; 6 uM SaTBP, 5 uM SaTFB", "result": 92},
      {"measurement": "Kd", "setting": "[3]; SaTBP titrated, SaTFB 3 uM (Fig S7) or 2 uM", "result": 930, "unit": "nM"},
      {"measurement": "Kd", "setting": "[3]; SaTFB titrated, 14 uM SaTBP", "result": 363, "unit": "nM"}
    ]},
    {"molecule": "DNAH2B (H2B promoter) (dsDNA) DNA 1: CTTCACCTTATTTGCATAAGCGATTCTATATAAAAGCGCCTCGCTCTACCCTGCTCACGCTGTTTTTCCTTTTCGTTGGC DNA 2: GCCAACGAAAAGGAAAAACAGCGTGAGCAGGGTAGAGCGAGGCGCTTTTATATAGAATCGCTTATGCAAATAAGGTGAAG", "values": [
      {"measurement": "Kd", "setting": "[4]", "result": "4.2 ± 1.2", "unit": "nM"},
      {"measurement": "binding result", "setting": "[5]", "result": "binds"}
    ]},
    {"molecule": "DNASSV (SSV T6 promoter) (dsDNA) DNA 1: CGGACCGAAAGCGCGACCATCGCCGGAGATTGGAGTAAAGTTTAAATACTG DNA 2: CAGTATTTAAACTTTACTCCAATCTCCGGCGATGGTCGCGCTTTCGGTCCG", "values": [
      {"measurement": "Kd", "setting": "[6]", "result": "48 ± 6", "unit": "nM"}
    ]}
  ]
}
